The supplement of paper PMC9732359
± gives the uncertainty stated by the source.

Assay: protein stability index of a GFP-peptide fusion (yeast GPS) (PSI 1-4); higher = more stable; sorted into four equal gates, so the index is relative within each strain
Summary of the method: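 Tiled 17-residue peptides from yeast proteins were fused downstream of GFP on a plasmid that also expresses Cherry, and the pooled library was carried in yeast. Mid-log cultures grown in leucine-free medium were sorted into four equal gates by GFP/Cherry fluorescence ratio. Plasmids from each gate were PCR-amplified and Illumina-sequenced, and reads were assigned to strains by barcodes. Each peptide's protein stability index is the sum, over gates, of the gate's read frequency multiplied by its gate number.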

AGADRLQQGMRGAWGKP [RPL10]
protein stability index (doa10∆): 3.41 ± 0.12
protein stability index (pdr5∆): 3.25 ± 0.13
protein stability index (san1∆): 2.95 ± 0.12
protein stability index (ubr1∆): 3.31 ± 0.086

LVAKFLYPIFLLDDKKL [YJR042W/NUP85]
protein stability index (doa10∆): 1.49 ± 0.034
protein stability index (pdr5∆): 1.29 ± 0.033
protein stability index (san1∆): 1.16 ± 0.073
protein stability index (ubr1∆): 1.26 ± 0.027

SCHGHFGHLKLALPVFH [RPO31]
protein stability index (doa10∆): 1.44 ± 0.054
protein stability index (pdr5∆): 1.4 ± 0.057
protein stability index (san1∆): 1.23 ± 0.1
protein stability index (ubr1∆): 1.18 ± 0.035

AITADLGSSEAENLLQL [YGL172W/NUP49]
protein stability index (pdr5∆): 1.31 ± 0.21

LQPIFKGEEAKLDSKKT [SSN3]
protein stability index (doa10∆): 3.52 ± 0.2
protein stability index (pdr5∆): 3.11 ± 0.23
protein stability index (san1∆): 3.54 ± 0.17

LTKAQKYLEQVLDHQRA [RPL17A]
protein stability index (doa10∆): 2.69 ± 0.056
protein stability index (pdr5∆): 2.73 ± 0.063
protein stability index (san1∆): 2.47 ± 0.062
protein stability index (ubr1∆): 2.51 ± 0.039

HKTMSIVGVLQDDADPM [RPT2]
protein stability index (doa10∆): 1.6 ± 0.18
protein stability index (pdr5∆): 1.3 ± 0.2
protein stability index (san1∆): 1.58 ± 0.21
protein stability index (ubr1∆): 1.85 ± 0.13

TPIIFIGTGEHIHDLEK [SRP54]
protein stability index (doa10∆): 1.94 ± 0.071
protein stability index (pdr5∆): 2.42 ± 0.063
protein stability index (san1∆): 2.76 ± 0.068
protein stability index (ubr1∆): 2.45 ± 0.056

CSFITQDKMFVSNPIRK [FAS1]
protein stability index (doa10∆): 1.37 ± 0.081
protein stability index (pdr5∆): 1.3 ± 0.073
protein stability index (san1∆): 1.25 ± 0.11
protein stability index (ubr1∆): 1.22 ± 0.042

VRQKIKTLKRMIKESST [POP1]
protein stability index (doa10∆): 1.47 ± 0.039
protein stability index (pdr5∆): 1.68 ± 0.052
protein stability index (san1∆): 1.45 ± 0.081
protein stability index (ubr1∆): 1.93 ± 0.044

RFWSFMKTQRFVSNMGF [SIR4]
protein stability index (doa10∆): 1.55 ± 0.21
protein stability index (pdr5∆): 1.4 ± 0.11
protein stability index (san1∆): 1.82 ± 0.13
protein stability index (ubr1∆): 1.68 ± 0.048

NSFYYTSLLYLSTLEPS [RPN9]
protein stability index (doa10∆): 1.82 ± 0.05
protein stability index (pdr5∆): 1.56 ± 0.046
protein stability index (san1∆): 1.47 ± 0.1
protein stability index (ubr1∆): 1.77 ± 0.041

QNNLPPNFFLTLISENW [BRR2]
protein stability index (doa10∆): 2.94 ± 0.073
protein stability index (pdr5∆): 3.13 ± 0.069
protein stability index (san1∆): 2.91 ± 0.071
protein stability index (ubr1∆): 2.94 ± 0.072

SNAVTQTNIWEENWDDV [SEM1]
protein stability index (doa10∆): 3.36 ± 0.085
protein stability index (pdr5∆): 3.46 ± 0.12
protein stability index (san1∆): 3.32 ± 0.084
protein stability index (ubr1∆): 3.43 ± 0.14

ATYSNEFKCMSVITAQQ [YGL100W/SEH1]
protein stability index (doa10∆): 1.75 ± 0.053
protein stability index (pdr5∆): 1.48 ± 0.042
protein stability index (san1∆): 1.46 ± 0.085
protein stability index (ubr1∆): 2.01 ± 0.031

AERTMSKKETKLQENRT [SMC2]
protein stability index (doa10∆): 2.84 ± 0.25
protein stability index (pdr5∆): 3.17 ± 0.19
protein stability index (san1∆): 3.31 ± 0.15
protein stability index (ubr1∆): 3.04 ± 0.13

DSTSHNNGSSDKSLDSS [MED1]
protein stability index (doa10∆): 3.04 ± 0.062
protein stability index (pdr5∆): 3.11 ± 0.067
protein stability index (san1∆): 3.08 ± 0.07
protein stability index (ubr1∆): 3.08 ± 0.046

DKDNAEKTLGKSLSKAI [RPN7]
protein stability index (doa10∆): 2.27 ± 0.12
protein stability index (pdr5∆): 2.67 ± 0.21

LITKANKVSYYGNPTSK [RTT102]
protein stability index (doa10∆): 2.21 ± 0.044
protein stability index (pdr5∆): 1.89 ± 0.042
protein stability index (san1∆): 1.97 ± 0.089
protein stability index (ubr1∆): 2.2 ± 0.045

MSANGFAADGDALVKRF [PRE7]
protein stability index (doa10∆): 3.35 ± 0.26
protein stability index (pdr5∆): 3.4 ± 0.23
protein stability index (san1∆): 2.9 ± 0.21
protein stability index (ubr1∆): 3.41 ± 0.053

LLDNEIRIFRSELQRLS [RPT5]
protein stability index (doa10∆): 2.4 ± 0.26
protein stability index (san1∆): 3.09 ± 0.076
protein stability index (ubr1∆): 3.03 ± 0.21

SKTWETYEMRIHKRYID [RPS20]
protein stability index (doa10∆): 2.45 ± 0.13
protein stability index (pdr5∆): 3 ± 0.091
protein stability index (san1∆): 1.84 ± 0.18
protein stability index (ubr1∆): 3.21 ± 0.072

TSKQHKRSGHRTAPKSD [RPL18A]
protein stability index (doa10∆): 3.18 ± 0.23
protein stability index (san1∆): 3.1 ± 0.14
protein stability index (ubr1∆): 3.06 ± 0.2

GKLISNLSSTPMETLLS [YML031W/NDC1]
protein stability index (doa10∆): 2.61 ± 0.11
protein stability index (pdr5∆): 2.92 ± 0.12
protein stability index (san1∆): 2.51 ± 0.11
protein stability index (ubr1∆): 2.5 ± 0.063

SAAELERLDKDKDRDTR [SNF5]
protein stability index (doa10∆): 1.76 ± 0.087
protein stability index (pdr5∆): 1.46 ± 0.14
protein stability index (san1∆): 1.9 ± 0.12
protein stability index (ubr1∆): 2.95 ± 0.11

LKKRYDLSYNFNVHEVP [YMR129W/POM152]
protein stability index (doa10∆): 2.78 ± 0.05
protein stability index (pdr5∆): 2.6 ± 0.056
protein stability index (san1∆): 2.7 ± 0.058
protein stability index (ubr1∆): 2.82 ± 0.042

GNDNNSDSNANAAVAGV [SWI3]
protein stability index (doa10∆): 3.21 ± 0.057
protein stability index (pdr5∆): 3.35 ± 0.056
protein stability index (san1∆): 3.31 ± 0.029
protein stability index (ubr1∆): 3.18 ± 0.058

LIQSTEFPSITSSVILG [YOR098C/NUP1]
protein stability index (doa10∆): 3.16 ± 0.12
protein stability index (pdr5∆): 3.44 ± 0.11
protein stability index (san1∆): 2.11 ± 0.13
protein stability index (ubr1∆): 3.17 ± 0.079

FLMGIFNSVVNLSRYPK [MTR3]
protein stability index (doa10∆): 2.6 ± 0.091
protein stability index (pdr5∆): 2.5 ± 0.089
protein stability index (san1∆): 2.49 ± 0.13
protein stability index (ubr1∆): 2.32 ± 0.13

LSPPEFLFHAISGREGL [RPO31]
protein stability index (doa10∆): 2.17 ± 0.047
protein stability index (pdr5∆): 1.79 ± 0.053
protein stability index (san1∆): 1.48 ± 0.14
protein stability index (ubr1∆): 1.63 ± 0.046

RPLKLERGFACIPLVGI [FAS1]
protein stability index (doa10∆): 1.69 ± 0.067
protein stability index (pdr5∆): 1.73 ± 0.048
protein stability index (san1∆): 1.51 ± 0.092
protein stability index (ubr1∆): 1.69 ± 0.048

YLKVSEEEIKKFDSRIR [PRP8]
protein stability index (doa10∆): 2.9 ± 0.072
protein stability index (pdr5∆): 3.08 ± 0.083
protein stability index (san1∆): 2.78 ± 0.066
protein stability index (ubr1∆): 3.15 ± 0.061

TKFKGGKRQLMKAVGEY [SEC65]
protein stability index (doa10∆): 2.88 ± 0.098
protein stability index (pdr5∆): 3.11 ± 0.11
protein stability index (san1∆): 3.26 ± 0.056
protein stability index (ubr1∆): 2.46 ± 0.088

KTADVKRQYVKQFLTKD [RPL20A]
protein stability index (doa10∆): 2.94 ± 0.087
protein stability index (pdr5∆): 2.92 ± 0.055
protein stability index (san1∆): 2.2 ± 0.07
protein stability index (ubr1∆): 2.6 ± 0.048

QIIRRVKEMEPKQSDEY [SIR3]
protein stability index (doa10∆): 3.29 ± 0.12
protein stability index (pdr5∆): 3.18 ± 0.11
protein stability index (san1∆): 3.37 ± 0.069
protein stability index (ubr1∆): 2.89 ± 0.15

EFIPHSTEYMMQFAKSK [RPN6]
protein stability index (pdr5∆): 3.28 ± 0.17
protein stability index (san1∆): 2.8 ± 0.1
protein stability index (ubr1∆): 1.91 ± 0.14

NAEKTGKRQVLIRPSSK [RPS22A]
protein stability index (doa10∆): 3.28 ± 0.16
protein stability index (pdr5∆): 3.26 ± 0.12
protein stability index (san1∆): 3.13 ± 0.14
protein stability index (ubr1∆): 3.03 ± 0.075

DLMDDMSDISDLDDLGF [RPN3]
protein stability index (doa10∆): 1.82 ± 0.098
protein stability index (pdr5∆): 1.89 ± 0.081
protein stability index (san1∆): 1.57 ± 0.14
protein stability index (ubr1∆): 1.74 ± 0.075

TESLRVENSVLIEKVDD [YIL149C/MLP2]
protein stability index (doa10∆): 2.48 ± 0.17
protein stability index (pdr5∆): 2.98 ± 0.22
protein stability index (san1∆): 2.63 ± 0.14
protein stability index (ubr1∆): 2.79 ± 0.074

GGIVTVRSEMGEPIHKI [FAS1]
protein stability index (doa10∆): 3.29 ± 0.18
protein stability index (pdr5∆): 2.91 ± 0.21

MSSVQSKILSQAPSELE [RPS7B]
protein stability index (doa10∆): 2.58 ± 0.08
protein stability index (pdr5∆): 2.72 ± 0.083
protein stability index (san1∆): 2.61 ± 0.098
protein stability index (ubr1∆): 2.04 ± 0.1

NDFNDLNIDWSTTGDNG [MED2]
protein stability index (doa10∆): 2.84 ± 0.05
protein stability index (pdr5∆): 2.86 ± 0.051
protein stability index (san1∆): 2.84 ± 0.046
protein stability index (ubr1∆): 2.73 ± 0.042

DSSSNTYRSRAQQVPPY [SIN4]
protein stability index (doa10∆): 2.89 ± 0.097
protein stability index (pdr5∆): 2.88 ± 0.17
protein stability index (san1∆): 3.15 ± 0.062
protein stability index (ubr1∆): 1.61 ± 0.11

RQKINGCEANIHSLVKQ [YIL149C/MLP2]
protein stability index (doa10∆): 3.12 ± 0.14
protein stability index (pdr5∆): 3.33 ± 0.13
protein stability index (san1∆): 2.98 ± 0.22
protein stability index (ubr1∆): 2.79 ± 0.21

AKTFIDLESSSPELKAD [RPS7B]
protein stability index (doa10∆): 3.03 ± 0.086
protein stability index (pdr5∆): 3.4 ± 0.077
protein stability index (san1∆): 3.29 ± 0.085
protein stability index (ubr1∆): 3.17 ± 0.085

SEDHSFRKIKLRVDEVQ [RPS1A]
protein stability index (doa10∆): 3.1 ± 0.12
protein stability index (pdr5∆): 3.16 ± 0.11
protein stability index (san1∆): 3.1 ± 0.071
protein stability index (ubr1∆): 3.22 ± 0.071

LCDLFVNGSITDQLIQN [NUT1]
protein stability index (pdr5∆): 2.11 ± 0.22
protein stability index (san1∆): 1.76 ± 0.21
protein stability index (ubr1∆): 3.44 ± 0.29

YFKMFPASKHDKEVVYF [RPC34]
protein stability index (doa10∆): 2.72 ± 0.16
protein stability index (pdr5∆): 3.2 ± 0.093
protein stability index (san1∆): 3.26 ± 0.075
protein stability index (ubr1∆): 3.4 ± 0.19

KMELVYVSDSDDSSSDN [SIR4]
protein stability index (doa10∆): 2.7 ± 0.059
protein stability index (pdr5∆): 2.68 ± 0.058
protein stability index (san1∆): 2.47 ± 0.078
protein stability index (ubr1∆): 2.59 ± 0.067

SKEDYETLKRDRKQSQA [ARP7]
protein stability index (doa10∆): 2.79 ± 0.071
protein stability index (pdr5∆): 2.9 ± 0.098
protein stability index (san1∆): 2.57 ± 0.093
protein stability index (ubr1∆): 2.6 ± 0.065
